Some results are limits rather than exact numbers.

This assay addresses T1, HLA-A*02:01 (human).
T1 construct: monomers captured on streptavidin plates; also called MHC class I
The assay can be described thus: UV peptide exchange ELISA. The essentials:
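Peptide-MHC complexes formed by UV-triggered exchange of a cleavable peptide for the test peptide, with stabilised complexes indicating binding. Exchange products diluted 100 fold onto streptavidin-coated wells, 1h at 37° C.; HRP anti-β2m (2 μg/ml), TMB, absorbance at 450 nm gives exchange yield.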
In general terms: ELISA stands for enzyme-linked immunosorbent assay.

YLFGERLLEC yielded a peptide exchange yield of 50 to 75%.

The molecule GLLDTQTSQVLTA showed a peptide exchange yield of 20 to 50%.

Consider ALALGGIAVV, for which the peptide exchange yield was at least 75%.

Molecule RLADKSVLV came in with a peptide exchange yield of 50 to 75%.

The molecule YLYNNMIAKI returned a peptide exchange yield of 50 to 75%.

The molecule SLIDKLYNI yielded a peptide exchange yield of 20 to 50%.

Molecule KLLPLAGLYL gave a peptide exchange yield of at least 75%.

On to ILLDDTGLAYI, for which the peptide exchange yield is 50 to 75%.

ILLEHGADPNL returned a peptide exchange yield of 50 to 75%.

As for VLIANLEKL, the peptide exchange yield was at least 75%.

As for VLFSGALLGL, the peptide exchange yield fell in the range of 20 to 50%.

Molecule SLLTEQDLWTV registered a peptide exchange yield of 20 to 50%.

On to ALLPLSPYL, for which the peptide exchange yield is 50 to 75%.

As to SLLPGNLVEKV, the peptide exchange yield is 50 to 75%.

Molecule LLDAMNYHL gave a peptide exchange yield of 20 to 50%.

In the case of QLIPALAKV, the peptide exchange yield was in the range of 50 to 75%.

QLVPALAKV registered a peptide exchange yield of 20 to 50%.

For GLVNDLARV, the peptide exchange yield lay in the range of 20 to 50%.

In the case of ILVEADSLWVV, the peptide exchange yield was in the range of 50 to 75%.

KLGHTDILVGV displayed a peptide exchange yield of 20 to 50%.

In the case of HLAEVSAEV, the peptide exchange yield fell in the range of 50 to 75%.

The molecule ALNDCIYSV registered a peptide exchange yield of 50 to 75%.

In turn, GLLRDEALAEV displayed a peptide exchange yield of 50 to 75%.

In the case of ALLHPQGFEV, the peptide exchange yield lay within 20 to 50%.

SLVESHLSDQLTL: the peptide exchange yield lay in the range of 50 to 75%.

Molecule KINDTIYEV showed a peptide exchange yield of 50 to 75%.

Take YLDDLNEGVYI: the peptide exchange yield is 20 to 50%.

Molecule LILDWVPYI showed a peptide exchange yield of 50 to 75%.

Molecule QLCDLNAEL came in with a peptide exchange yield of 50 to 75%.

LLIGHLERV registered a peptide exchange yield of 50 to 75%.

On to ALLENPKMEL, for which the peptide exchange yield was 50 to 75%.

The molecule ALYDVFLEV gave a peptide exchange yield of 20 to 50%.

AMLEKNYKL: the peptide exchange yield was at least 75%.

As for KLAKQPETV, the peptide exchange yield was 50 to 75%.

On to FLAKDFNFL, for which the peptide exchange yield was 50 to 75%.

On to KVSNSGITRV, for which the peptide exchange yield lay within 20 to 50%.

In turn, YLASDEITTV had a peptide exchange yield of 50 to 75%.

With KLDDLTQDLTV, the peptide exchange yield lay in the range of 20 to 50%.

Turning to YLAPELFVNV, the peptide exchange yield was 20 to 50%.

KLYDRILRV returned a peptide exchange yield of 20 to 50%.

ALADGVTMQV had a peptide exchange yield of 20 to 50%.

SLVNVVPKL came in with a peptide exchange yield of 20 to 50%.

ALITEVVRL returned a peptide exchange yield of 20 to 50%.

Consider GLWEIENNPTV, for which the peptide exchange yield lay in the range of 50 to 75%.

In turn, FMIDASVHPTL yielded a peptide exchange yield of 50 to 75%.

Molecule GLLGGGGVLGV registered a peptide exchange yield of 50 to 75%.

Consider YLLQEIYGI, for which the peptide exchange yield lay within 50 to 75%.

SMAPGLVIQAV: the peptide exchange yield is 50 to 75%.

On to KLLEEDGTIITL, for which the peptide exchange yield was 20 to 50%.

In turn, KLAEGLDIQL came in with a peptide exchange yield of 50 to 75%.

Molecule VLDDSIYLV yielded a peptide exchange yield of 20 to 50%.

As to KLLEATSAV, the peptide exchange yield lay in the range of 20 to 50%.

KLLEVSDDPQV: the peptide exchange yield was 50 to 75%.

As to NLLETKLQL, the peptide exchange yield lay within 50 to 75%.

Molecule VLLSLLEKV displayed a peptide exchange yield of 20 to 50%.

Turning to HLYSSIEHLTT, the peptide exchange yield fell in the range of 50 to 75%.

TLIEESAKV gave a peptide exchange yield of 20 to 50%.

For the molecule KLPPPPPQA, the peptide exchange yield is 50 to 75%.

For the molecule YLMDLINFL, the peptide exchange yield fell in the range of 50 to 75%.

On to YLFEPLYHV, for which the peptide exchange yield is 50 to 75%.

In turn, LLAVIGGLVYL gave a peptide exchange yield of 50 to 75%.

Molecule VMFRTPLASV displayed a peptide exchange yield of 20 to 50%.

LLLLDTVTMQV came in with a peptide exchange yield of 20 to 50%.

As for ALLPDLPAL, the peptide exchange yield lay within 50 to 75%.

SLLKEPQKVQL yielded a peptide exchange yield of 20 to 50%.

Consider YLRSVGDGETV, for which the peptide exchange yield lay within 50 to 75%.

Take AMLNEPWAV: the peptide exchange yield is 50 to 75%.

The values above are taken from patent US20170037110A1 (IMMATICS BIOTECHNOLOGIES, published 2017).
